In patent publication US20200297818A1 (ZEALAND PHARMA A S, published 2020):

T1: human GLP-2 receptor (hGLP2-R) (human, UniProt O95838 1-553)
T1 sequence (looked up): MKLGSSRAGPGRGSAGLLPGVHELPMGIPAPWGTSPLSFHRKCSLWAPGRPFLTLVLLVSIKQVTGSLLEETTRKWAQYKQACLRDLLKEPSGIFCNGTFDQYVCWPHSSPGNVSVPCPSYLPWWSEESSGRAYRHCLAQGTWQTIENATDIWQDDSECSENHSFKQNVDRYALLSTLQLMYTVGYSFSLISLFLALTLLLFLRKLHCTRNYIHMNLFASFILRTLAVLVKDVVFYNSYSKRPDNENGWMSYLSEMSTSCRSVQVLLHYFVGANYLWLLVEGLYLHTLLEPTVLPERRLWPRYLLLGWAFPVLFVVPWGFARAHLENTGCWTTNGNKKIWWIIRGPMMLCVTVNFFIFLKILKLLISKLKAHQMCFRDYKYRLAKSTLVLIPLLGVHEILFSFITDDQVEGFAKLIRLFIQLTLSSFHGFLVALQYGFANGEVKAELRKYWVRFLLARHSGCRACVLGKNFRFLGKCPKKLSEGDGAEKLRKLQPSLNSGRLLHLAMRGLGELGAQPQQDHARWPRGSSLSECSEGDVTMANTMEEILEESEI


How the values were obtained:
[1] = target: human glucagon-like peptide 1 receptor (GLP-1 R) (human, UniProt P43220 24-463); assay: cell-based or functional assay
[2] = target: T1, human GLP-2 receptor (hGLP2-R); assay: cell-based or functional assay

EC50 GLP-1 (nM); cAMP response [1] [nM]	EC50 GLP-2 (nM); cAMP response [2] [nM]	Binder
0.31	0.38	HXEGSFTSELATILDXQAARDFIAWLIRHKITD (HELM PEPTIDE1{H.[Aib].E.G.S.F.T.S.E.L.A.T.I.L.D.K.Q.A.A.R.D.F.I.A.W.L.I.R.H.K.I.T.D}|PEPTIDE2{[O=C(O)CCCCCCCCCCCCCCCCC(=O)[*:2]].[gGlu]}$PEPTIDE1,PEPTIDE2,16:R3-2:R2$$$V2.0; SMILES CC[C@H](C)[C@H](NC(=O)[C@H](Cc1ccccc1)NC(=O)[C@H](CC(=O)O)NC(=O)[C@H](CCCNC(=N)N)NC(=O)[C@H](C)NC(=O)[C@H](C)NC(=O)[C@H](CCC(N)=O)NC(=O)[C@H](CCCCNC(=O)CC[C@H](NC(=O)CCCCCCCCCCCCCCCCC(=O)O)C(=O)O)NC(=O)[C@H](CC(=O)O)NC(=O)[C@H](CC(C)C)NC(=O)[C@@H](NC(=O)[C@@H](NC(=O)[C@H](C)NC(=O)[C@H](CC(C)C)NC(=O)[C@H](CCC(=O)O)NC(=O)[C@H](CO)NC(=O)[C@@H](NC(=O)[C@H](Cc1ccccc1)NC(=O)[C@H](CO)NC(=O)CNC(=O)[C@H](CCC(=O)O)NC(=O)C(C)(C)NC(=O)[C@@H](N)Cc1c[nH]cn1)[C@@H](C)O)[C@@H](C)O)[C@@H](C)CC)C(=O)N[C@@H](C)C(=O)N[C@@H](Cc1c[nH]c2ccccc12)C(=O)N[C@@H](CC(C)C)C(=O)N[C@H](C(=O)N[C@@H](CCCNC(=N)N)C(=O)N[C@@H](Cc1c[nH]cn1)C(=O)N[C@@H](CCCCN)C(=O)N[C@H](C(=O)N[C@H](C(=O)N[C@@H](CC(=O)O)C(=O)O)[C@@H](C)O)[C@@H](C)CC)[C@@H](C)CC) [Compound 30]
0.27	0.24	HXEGSFTSELATILDXQAARDFIAWLISHKITD (HELM PEPTIDE1{H.[Aib].E.G.S.F.T.S.E.L.A.T.I.L.D.K.Q.A.A.R.D.F.I.A.W.L.I.S.H.K.I.T.D}|PEPTIDE2{[O=C(O)CCCCCCCCCCCCCCCCC(=O)[*:2]].[gGlu]}$PEPTIDE1,PEPTIDE2,16:R3-2:R2$$$V2.0; SMILES CC[C@H](C)[C@H](NC(=O)[C@H](Cc1ccccc1)NC(=O)[C@H](CC(=O)O)NC(=O)[C@H](CCCNC(=N)N)NC(=O)[C@H](C)NC(=O)[C@H](C)NC(=O)[C@H](CCC(N)=O)NC(=O)[C@H](CCCCNC(=O)CC[C@H](NC(=O)CCCCCCCCCCCCCCCCC(=O)O)C(=O)O)NC(=O)[C@H](CC(=O)O)NC(=O)[C@H](CC(C)C)NC(=O)[C@@H](NC(=O)[C@@H](NC(=O)[C@H](C)NC(=O)[C@H](CC(C)C)NC(=O)[C@H](CCC(=O)O)NC(=O)[C@H](CO)NC(=O)[C@@H](NC(=O)[C@H](Cc1ccccc1)NC(=O)[C@H](CO)NC(=O)CNC(=O)[C@H](CCC(=O)O)NC(=O)C(C)(C)NC(=O)[C@@H](N)Cc1c[nH]cn1)[C@@H](C)O)[C@@H](C)O)[C@@H](C)CC)C(=O)N[C@@H](C)C(=O)N[C@@H](Cc1c[nH]c2ccccc12)C(=O)N[C@@H](CC(C)C)C(=O)N[C@H](C(=O)N[C@@H](CO)C(=O)N[C@@H](Cc1c[nH]cn1)C(=O)N[C@@H](CCCCN)C(=O)N[C@H](C(=O)N[C@H](C(=O)N[C@@H](CC(=O)O)C(=O)O)[C@@H](C)O)[C@@H](C)CC)[C@@H](C)CC) [Compound 31]

The next lines start with the binder.

Binder	EC50 GLP-1 (nM); cAMP response [1] [nM]	EC50 GLP-2 (nM); cAMP response [2] [nM]
HXEGSFTSELATILDXQAARDFIAWLIHHKITD (HELM PEPTIDE1{H.[Aib].E.G.S.F.T.S.E.L.A.T.I.L.D.K.Q.A.A.R.D.F.I.A.W.L.I.H.H.K.I.T.D}|PEPTIDE2{[O=C(O)CCCCCCCCCCCCCCCCC(=O)[*:2]].[gGlu]}$PEPTIDE1,PEPTIDE2,16:R3-2:R2$$$V2.0; SMILES CC[C@H](C)[C@H](NC(=O)[C@H](Cc1ccccc1)NC(=O)[C@H](CC(=O)O)NC(=O)[C@H](CCCNC(=N)N)NC(=O)[C@H](C)NC(=O)[C@H](C)NC(=O)[C@H](CCC(N)=O)NC(=O)[C@H](CCCCNC(=O)CC[C@H](NC(=O)CCCCCCCCCCCCCCCCC(=O)O)C(=O)O)NC(=O)[C@H](CC(=O)O)NC(=O)[C@H](CC(C)C)NC(=O)[C@@H](NC(=O)[C@@H](NC(=O)[C@H](C)NC(=O)[C@H](CC(C)C)NC(=O)[C@H](CCC(=O)O)NC(=O)[C@H](CO)NC(=O)[C@@H](NC(=O)[C@H](Cc1ccccc1)NC(=O)[C@H](CO)NC(=O)CNC(=O)[C@H](CCC(=O)O)NC(=O)C(C)(C)NC(=O)[C@@H](N)Cc1c[nH]cn1)[C@@H](C)O)[C@@H](C)O)[C@@H](C)CC)C(=O)N[C@@H](C)C(=O)N[C@@H](Cc1c[nH]c2ccccc12)C(=O)N[C@@H](CC(C)C)C(=O)N[C@H](C(=O)N[C@@H](Cc1c[nH]cn1)C(=O)N[C@@H](Cc1c[nH]cn1)C(=O)N[C@@H](CCCCN)C(=O)N[C@H](C(=O)N[C@H](C(=O)N[C@@H](CC(=O)O)C(=O)O)[C@@H](C)O)[C@@H](C)CC)[C@@H](C)CC) [Compound 26]	0.29	0.59
HXEGSFTSELATILDXQAARDFIAWLILHKITD (HELM PEPTIDE1{H.[Aib].E.G.S.F.T.S.E.L.A.T.I.L.D.K.Q.A.A.R.D.F.I.A.W.L.I.L.H.K.I.T.D}|PEPTIDE2{[O=C(O)CCCCCCCCCCCCCCCCC(=O)[*:2]].[gGlu]}$PEPTIDE1,PEPTIDE2,16:R3-2:R2$$$V2.0; SMILES CC[C@H](C)[C@H](NC(=O)[C@H](Cc1ccccc1)NC(=O)[C@H](CC(=O)O)NC(=O)[C@H](CCCNC(=N)N)NC(=O)[C@H](C)NC(=O)[C@H](C)NC(=O)[C@H](CCC(N)=O)NC(=O)[C@H](CCCCNC(=O)CC[C@H](NC(=O)CCCCCCCCCCCCCCCCC(=O)O)C(=O)O)NC(=O)[C@H](CC(=O)O)NC(=O)[C@H](CC(C)C)NC(=O)[C@@H](NC(=O)[C@@H](NC(=O)[C@H](C)NC(=O)[C@H](CC(C)C)NC(=O)[C@H](CCC(=O)O)NC(=O)[C@H](CO)NC(=O)[C@@H](NC(=O)[C@H](Cc1ccccc1)NC(=O)[C@H](CO)NC(=O)CNC(=O)[C@H](CCC(=O)O)NC(=O)C(C)(C)NC(=O)[C@@H](N)Cc1c[nH]cn1)[C@@H](C)O)[C@@H](C)O)[C@@H](C)CC)C(=O)N[C@@H](C)C(=O)N[C@@H](Cc1c[nH]c2ccccc12)C(=O)N[C@@H](CC(C)C)C(=O)N[C@H](C(=O)N[C@@H](CC(C)C)C(=O)N[C@@H](Cc1c[nH]cn1)C(=O)N[C@@H](CCCCN)C(=O)N[C@H](C(=O)N[C@H](C(=O)N[C@@H](CC(=O)O)C(=O)O)[C@@H](C)O)[C@@H](C)CC)[C@@H](C)CC) [Compound 28]	0.36	0.51
HXEGSFTSELATILDXQAARDFIAWLIKHKITD (HELM PEPTIDE1{H.[Aib].E.G.S.F.T.S.E.L.A.T.I.L.D.K.Q.A.A.R.D.F.I.A.W.L.I.K.H.K.I.T.D}|PEPTIDE2{[O=C(O)CCCCCCCCCCCCCCCCC(=O)[*:2]].[gGlu]}$PEPTIDE1,PEPTIDE2,16:R3-2:R2$$$V2.0; SMILES CC[C@H](C)[C@H](NC(=O)[C@H](Cc1ccccc1)NC(=O)[C@H](CC(=O)O)NC(=O)[C@H](CCCNC(=N)N)NC(=O)[C@H](C)NC(=O)[C@H](C)NC(=O)[C@H](CCC(N)=O)NC(=O)[C@H](CCCCNC(=O)CC[C@H](NC(=O)CCCCCCCCCCCCCCCCC(=O)O)C(=O)O)NC(=O)[C@H](CC(=O)O)NC(=O)[C@H](CC(C)C)NC(=O)[C@@H](NC(=O)[C@@H](NC(=O)[C@H](C)NC(=O)[C@H](CC(C)C)NC(=O)[C@H](CCC(=O)O)NC(=O)[C@H](CO)NC(=O)[C@@H](NC(=O)[C@H](Cc1ccccc1)NC(=O)[C@H](CO)NC(=O)CNC(=O)[C@H](CCC(=O)O)NC(=O)C(C)(C)NC(=O)[C@@H](N)Cc1c[nH]cn1)[C@@H](C)O)[C@@H](C)O)[C@@H](C)CC)C(=O)N[C@@H](C)C(=O)N[C@@H](Cc1c[nH]c2ccccc12)C(=O)N[C@@H](CC(C)C)C(=O)N[C@H](C(=O)N[C@@H](CCCCN)C(=O)N[C@@H](Cc1c[nH]cn1)C(=O)N[C@@H](CCCCN)C(=O)N[C@H](C(=O)N[C@H](C(=O)N[C@@H](CC(=O)O)C(=O)O)[C@@H](C)O)[C@@H](C)CC)[C@@H](C)CC) [Compound 29]	0.31	0.29
HXEGSFTSELATILDXQAARDFIAWLIYHKITD (HELM PEPTIDE1{H.[Aib].E.G.S.F.T.S.E.L.A.T.I.L.D.K.Q.A.A.R.D.F.I.A.W.L.I.Y.H.K.I.T.D}|PEPTIDE2{[O=C(O)CCCCCCCCCCCCCCCCC(=O)[*:2]].[gGlu]}$PEPTIDE1,PEPTIDE2,16:R3-2:R2$$$V2.0; SMILES CC[C@H](C)[C@H](NC(=O)[C@H](Cc1ccccc1)NC(=O)[C@H](CC(=O)O)NC(=O)[C@H](CCCNC(=N)N)NC(=O)[C@H](C)NC(=O)[C@H](C)NC(=O)[C@H](CCC(N)=O)NC(=O)[C@H](CCCCNC(=O)CC[C@H](NC(=O)CCCCCCCCCCCCCCCCC(=O)O)C(=O)O)NC(=O)[C@H](CC(=O)O)NC(=O)[C@H](CC(C)C)NC(=O)[C@@H](NC(=O)[C@@H](NC(=O)[C@H](C)NC(=O)[C@H](CC(C)C)NC(=O)[C@H](CCC(=O)O)NC(=O)[C@H](CO)NC(=O)[C@@H](NC(=O)[C@H](Cc1ccccc1)NC(=O)[C@H](CO)NC(=O)CNC(=O)[C@H](CCC(=O)O)NC(=O)C(C)(C)NC(=O)[C@@H](N)Cc1c[nH]cn1)[C@@H](C)O)[C@@H](C)O)[C@@H](C)CC)C(=O)N[C@@H](C)C(=O)N[C@@H](Cc1c[nH]c2ccccc12)C(=O)N[C@@H](CC(C)C)C(=O)N[C@H](C(=O)N[C@@H](Cc1ccc(O)cc1)C(=O)N[C@@H](Cc1c[nH]cn1)C(=O)N[C@@H](CCCCN)C(=O)N[C@H](C(=O)N[C@H](C(=O)N[C@@H](CC(=O)O)C(=O)O)[C@@H](C)O)[C@@H](C)CC)[C@@H](C)CC) [Compound 27]	0.45	1.1
